How the values were obtained:
[1] = target: T1, MBP-BFP-TLS-GFP-6xHis (TLS/FUS) (UniProt P35637 1-526); test: FRET; Anisotropy: 5 mM Tris-HCl pH 7.6, 25 mM NaCl, 0.1% CHAPS, 2.5 mM glucose, 0.5 mM DTT, 25 C, 100 nM TAMRA-RNA; FRET buffer not in material; conditions: protein: recombinant; tags: N-term MBP, TagBFP; C-term TagGFP2, 6xHis
[2] = target: T1, MBP-BFP-TLS-GFP-6xHis (TLS/FUS); test: as above; conditions: protein: recombinant, tags: N-term MBP, TagBFP, C-term TagGFP2, 6xHis
[3] = target: T1, MBP-BFP-TLS-GFP-6xHis (TLS/FUS); test: fluorescence anisotropy; 100 nM RNA; Anisotropy: 5 mM Tris-HCl pH 7.6, 25 mM NaCl, 0.1% CHAPS, 2.5 mM glucose, 0.5 mM DTT, 25 C, 100 nM TAMRA-RNA; FRET buffer not in material; conditions: protein: recombinant; tags: N-term MBP, TagBFP; C-term TagGFP2, 6xHis; label: TAMRA
[4] = target: T1, MBP-BFP-TLS-GFP-6xHis (TLS/FUS); test: FRET; Anisotropy: 5 mM Tris-HCl pH 7.6, 25 mM NaCl, 0.1% CHAPS, 2.5 mM glucose, 0.5 mM DTT, 25 C, 100 nM TAMRA-RNA; FRET buffer not in material; conditions: protein: recombinant; tags: N-term MBP, TagBFP; C-term TagGFP2, 6xHis; remark: listed apart in the source

T1 sequence (P35637 whole entry): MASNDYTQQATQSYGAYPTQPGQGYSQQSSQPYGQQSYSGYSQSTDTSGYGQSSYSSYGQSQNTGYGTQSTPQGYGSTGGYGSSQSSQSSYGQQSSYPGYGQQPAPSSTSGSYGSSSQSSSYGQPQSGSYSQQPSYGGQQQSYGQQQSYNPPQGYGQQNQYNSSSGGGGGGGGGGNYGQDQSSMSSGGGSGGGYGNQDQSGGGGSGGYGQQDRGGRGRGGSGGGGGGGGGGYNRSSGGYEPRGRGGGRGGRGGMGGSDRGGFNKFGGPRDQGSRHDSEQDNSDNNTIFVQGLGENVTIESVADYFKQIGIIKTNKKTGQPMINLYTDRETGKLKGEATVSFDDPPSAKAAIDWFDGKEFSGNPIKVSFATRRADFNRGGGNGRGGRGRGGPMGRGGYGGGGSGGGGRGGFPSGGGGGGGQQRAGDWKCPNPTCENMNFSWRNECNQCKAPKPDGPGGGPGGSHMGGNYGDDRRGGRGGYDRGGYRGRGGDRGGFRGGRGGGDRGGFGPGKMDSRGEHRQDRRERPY

GAGGGU (ssRNA) [R6]
binding result [1]: binds

CGGUGGUUUGAUGACACUG (structured_RNA) [R19 (3'-pncRNA)]
binding signal ([2]; stem-loop): 0.055 ± 0.0099 |dE| FRET

UUUUUUUUUUUUUUUUUUUUUUUUUUUUUUU (ssRNA) [TAMRA-U31]
binding result [3]: binds

CGGTGGTTTGATGACACTG (ssDNA) [D19]
binding signal [4]: 0.0309 ± 0.0025 |dE| FRET

GTTAAGAGGGTACGGTGGTTTGATGACACTG (ssDNA) [D31]
binding signal [4]: 0.0594 ± 0.0039 |dE| FRET

GUUAAGAGGGUAC (ssRNA) [R13 (5'-pncRNA)]
binding signal [2]: 0.0663 ± 0.0091 |dE| FRET

GTTAAGAGGGTAC (ssDNA) [D13]
binding signal [4]: 0.0175 ± 0.0018 |dE| FRET

GUUAAGAGGGUA (ssRNA) [R12]
binding result [1]: binds

Source: publication PMC7021683, “RNA sequence and length contribute to RNA-induced conformational change of TLS/FUS”
